IntAct's records for PubMed 27071417

B1: Caspase recruitment domain-containing protein 14 (Homo sapiens), Q9BXL6-1 (parent)
chain: MGELCRRDSALTALDEETLWEMMESHRHRIVRCICPSRLTPYLRQAKVLCQLDEEEVLHSPRLTNSAMRAGHLLDLLKTRGKNGAIAFLESLKFHNPDVYTLVTGLQPDVDFSNFSGLMETSKLTECLAGAIGSLQEELNQEKGQKEVLLRRCQQLQEHLGLAETRAEGLHQLEADHSRMKREVSAHFHEVLRLKDEMLSLSLHYSNALQEKELAASRCRSLQEELYLLKQELQRANMVSSCELELQEQSLRTASDQESGDEELNRLKEENEKLRSLTFSLAEKDILEQSLDEARGSRQELVERIHSLRERAVAAERQREQYWEEKEQTLLQFQKSKMACQLYREKVNALQAQVCELQKERDQAYSARDSAQREISQSLVEKDSLRRQVFELTDQVCELRTQLRQLQAEPPGVLKQEARTREPCPREKQRLVRMHAICPRDDSDCSLVSSTESQLLSDLSATSSRELVDSFRSSSPAPPSQQSLYKRVAEDFGEEPWSFSSCLEIPEGDPGALPGAKAGDPHLDYELLDTADLPQLESSLQPVSPGRLDVSESGVLMRRRPARRILSQVTMLAFQGDALLEQISVIGGNLTGIFIHRVTPGSAADQMALRPGTQIVMVDYEASEPLFKAVLEDTTLEEAVGLLRRVDGFCCLSVKVNTDGYKRLLQDLEAKVATSGDSFYIRVNLAMEGRAKGELQVHCNEVLHVTDTMFQGCGCWHAHRVNSYTMKDTAAHGTIPNYSRAQQQLIALIQDMTQQCTVTRKPSSGGPQKLVRIVSMDKAKASPLRLSFDRGQLDPSRMEGSSTCFWAESCLTLVPYTLVRPHRPARPRPVLLVPRAVGKILSEKLCLLQGFKKCLAEYLSQEEYEAWSQRGDIIQEGEVSGGRCWVTRHAVESLMEKNTHALLDVQLDSVCTLHRMDIFPIVIHVSVNEKMAKKLKKGLQRLGTSEEQLLEAARQEEGDLDRAPCLYSSLAPDGWSDLDGLLSCVRQAIADEQKKVVWTEQSPR
partner: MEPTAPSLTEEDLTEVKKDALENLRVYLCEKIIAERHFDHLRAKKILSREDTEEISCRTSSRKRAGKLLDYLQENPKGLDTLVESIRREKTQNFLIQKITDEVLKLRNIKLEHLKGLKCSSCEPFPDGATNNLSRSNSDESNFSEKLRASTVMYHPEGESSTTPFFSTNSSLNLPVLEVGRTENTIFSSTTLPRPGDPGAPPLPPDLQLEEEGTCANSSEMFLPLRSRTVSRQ
B2: Caspase recruitment domain-containing protein 14 (Homo sapiens), Q9BXL6-2 (parent)
chain: MGELCRRDSALTALDEETLWEMMESHRHRIVRCICPSRLTPYLRQAKVLCQLDEEEVLHSPRLTNSAMRAGHLLDLLKTRGKNGAIAFLESLKFHNPDVYTLVTGLQPDVDFSNFSGLMETSKLTECLAGAIGSLQEELNQEKGQKEVLLRRCQQLQEHLGLAETRAEGLHQLEADHSRMKREVSAHFHEVLRLKDEMLSLSLHYSNALQEKELAASRCRSLQEELYLLKQELQRANMVSSCELELQEQSLRTASDQESGDEELNRLKEENEKLRSLTFSLAEKDILEQSLDEARGSRQELVERIHSLRERAVAAERQREQYWEEKEQTLLQFQKSKMACQLYREKVNALQAQVCELQKERDQAYSARDSAQREISQSLVEKDSLRRQVFELTDQVCELRTQLRQLQAEPPGVLKQEARTREPCPREKQRLVRMHAICPRDDSDCSLVSSTESQLLSDLSATSSRELVDSFRSSSPAPPSQQSLYKRVAEDFGEEPWSFSSCLEIPEGDPGALPGAKAGDPHLDYELLDTADLPQLESSLQPVSPGRLDVSESGVLMRRRPARRILSQVTMLAFQGDALLEQISVIGGNLTGIFIHRVTPGSAADQMALRPGTQIVMVDYEASEPLFKAVLEDTTLEEAVGLLRRVDGFCCLSVKVNTDGYKRLLQDLEAKVATSGDSFYIRVNLAMEGRAKGELQVHCNEVLHVTDTMFQGCGCWHAHRVNSYTMKDTAAHGTIPNYSR
partner: B1 partner

How the values were obtained:
Settings in all cases: with bcl10_human BCL10, O95999
[1] = variants of: B1
[2] = variants of: B1; remark: listed apart in the source
[3] = variants of: B2; remark: listed apart in the source
[4] = variants of: B2; remark: listed apart in the source

Variant	effect of a mutation on the interaction [1]	effect of a mutation on the interaction [2]	effect of a mutation on the interaction [3]	effect of a mutation on the interaction [4]
E138A	with no effect	increasing interaction strength		
G117S			increasing interaction strength	with no effect
E138A			increasing interaction strength	with no effect
